How the values were obtained:
Rabbit TFPI = biological target: T1, Rabbit TFPI (rabbit, UniProt P19761 25-300, limits assumed); assay: SPR (Biacore 3000), mAb captured on immobilised anti-mouse IgG, TFPI in solution, 1:1 model
T1 sequence (looked up): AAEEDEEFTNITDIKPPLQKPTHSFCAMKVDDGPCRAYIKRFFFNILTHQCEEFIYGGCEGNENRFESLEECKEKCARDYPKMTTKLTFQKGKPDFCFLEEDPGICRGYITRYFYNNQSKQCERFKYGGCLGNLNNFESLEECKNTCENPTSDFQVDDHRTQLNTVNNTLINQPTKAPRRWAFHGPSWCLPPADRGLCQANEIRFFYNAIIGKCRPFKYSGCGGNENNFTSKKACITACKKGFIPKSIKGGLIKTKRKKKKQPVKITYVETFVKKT
Description: (§1) Binding interaction analysis was obtained by Surface Plasmon Resonance in a Biacore 3000. Capture of the relevant monoclonal antibody at a fixed concentration was obtained with immobilised mouse anti-IgG. Different concentrations of TFPI were tested. Determination of binding constants (kₒₙ, koff, KD) was obtained assuming a 1:1 interaction of TFPI and the antibody of interest.

full length human TFPI = biological target: T2, full length human TFPI (human, UniProt P10646 29-304); assay: as above
T2 construct: also called wild type (wt) TFPI; TFPI Fl
T2 sequence: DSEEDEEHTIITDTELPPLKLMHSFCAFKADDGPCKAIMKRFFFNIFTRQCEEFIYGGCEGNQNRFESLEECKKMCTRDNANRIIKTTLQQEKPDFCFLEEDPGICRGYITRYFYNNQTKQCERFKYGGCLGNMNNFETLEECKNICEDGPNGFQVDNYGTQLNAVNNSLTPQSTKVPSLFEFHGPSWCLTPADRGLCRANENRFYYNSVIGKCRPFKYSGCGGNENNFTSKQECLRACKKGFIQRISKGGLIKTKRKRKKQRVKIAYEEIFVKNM
Description: as §1

truncated TFPI (1-239) = biological target: T3, truncated TFPI (1-239) (human, UniProt P10646 29-267); assay: binding of TFPI variants to anti-TFPI MAbs relative to TFPI-WT (=1.0); ELISA or ForteBio with HEK293-F conditioned medium, Example 7
T3 construct: Expressed in HEK293-F cells; conditioned medium used
T3 sequence: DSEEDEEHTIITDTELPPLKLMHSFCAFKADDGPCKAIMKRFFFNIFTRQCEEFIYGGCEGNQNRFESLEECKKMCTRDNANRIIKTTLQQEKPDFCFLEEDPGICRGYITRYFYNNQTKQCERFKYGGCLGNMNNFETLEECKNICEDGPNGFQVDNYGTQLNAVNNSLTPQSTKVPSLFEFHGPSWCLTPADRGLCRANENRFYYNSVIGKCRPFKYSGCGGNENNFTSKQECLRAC
Description: (§2) The effect of truncating the C-terminal tail of TFPI on TFPI's binding affinity to MuTFPI22F66, MuTFPI22F71, MuTFPI22F74, MuTFPI22F79 and MuTFPI22F132 was analyzed by means of ELISA, or real-time binding analysis, using the ForteBio platform. […] The ELISAs, or the real-time binding analyses, were carried out using the conditioned medium from the cell cultures.
(§3) The concentrations of wt TFPI and truncated TFPI mutants in the conditioned medium were estimated by means of an ELISA that binds TFPI K1-K2 (Goat anti-TFPI, in-house) and K2 (MAb4F36, in-house). The binding to these antibodies is not affected by the truncations. Alternatively, biotin-labelled MAb4F36 was captured on streptavidin coated BioSensor tips (ForteBio) and used for concentration estimations.
(§4) In the ELISA setting, the effect of the mutations on TFPI's ability to bind to MuTFPI22F66, MuTFPI22F71, MuTFPI22F74, MuTFPI22F79 or MuTFPI22F132 was analyzed using each of the listed MAbs as capturing antibody and using MAb4F36 for detection. Direct binding of TFPI variants to biotin-labelled MuTFPI22F66, MuTFPI22F71, MuTFPI22F74, MuTFPI22F79, and MuTFPI22F132, captured on streptavidin coated BioSensor tips (ForteBio), was measured using the ForteBio platform.

truncated TFPI (1-240) = biological target: T4, truncated TFPI (1-240) (human, UniProt P10646 29-268); assay: as above
T4 construct: Expressed in HEK293-F cells; conditioned medium used
T4 sequence: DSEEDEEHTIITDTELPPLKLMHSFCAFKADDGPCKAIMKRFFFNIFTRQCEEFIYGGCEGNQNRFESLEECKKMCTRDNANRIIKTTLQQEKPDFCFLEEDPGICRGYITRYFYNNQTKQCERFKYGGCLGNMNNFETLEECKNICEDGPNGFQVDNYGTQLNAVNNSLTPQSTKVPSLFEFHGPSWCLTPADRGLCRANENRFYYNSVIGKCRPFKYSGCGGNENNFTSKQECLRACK
Description: as §2, §3, §4

B1: MuTFPI22F71 (antibody, mouse IgG1, V domains shown)
VH: EVQLQQSGTVLARPGASVKMSCKASGYSFTTYWIHWVKQRPGQGLEWIGAIDPGNSDATYSQKFKDKAKLTAVTSASTAFMELNSLTNDDSAVYYCSREVYYGYDGDYFDYWGQGTTLTVSS
VL: DIVLTQSPASLAVSLGQRATISCRASESVSVHGTHLMHWYQQKPGQPPKLLIYAASKLESGVPARFSGSGSETDFTLNIHPVEEEDAATYFCQQSIGDPWTFGGGTKLEIKR
notes: also called anti-TFPI22F71
Q: B1 was tested. Which Kd (Rabbit TFPI) did it give?
A: Its Kd is 0.18 nM.

Q: What about the Kd (full length human TFPI) of the same binder?
A: Its Kd is 0.8 nM.

Q: Does B1 bind (truncated TFPI (1-239))?
A: Result: no binding

B2: MuTFPI22F66 (antibody, mouse IgG1, V domains shown)
VH: EVQLQQSGPELVKPGASMKISCKASGYSFTGYPMNWVRQSHGKNLEWIGLINPYNGDTTFNQKFKGKATLTVDKSSSTAYMELLSLTSEDSAVYYCARGTYEYVDYWGQGTTLTVSS
VL: QIVLTQSPTIMSASPGERVTMTCSASSSVFYMHWYQQKPGSSPRLLIYDTSILSSGVPVRFSGSGSGTSYSLTIRRMEAEDAATYYCQQWSSYPLTFGAGTKLELKR
notes: also called anti-TFPI22F66
Q: For B2, which Kd (Rabbit TFPI) is on record?
A: Its Kd is 3.76 nM.

Q: What about the Kd (full length human TFPI) of the same binder?
A: Its Kd is 0.6 nM.

Q: Does B2 bind (truncated TFPI (1-239))?
A: Result: no binding

Q: Does B2 bind (truncated TFPI (1-240))?
A: Result: no binding

B3: MuTFPI4F110 (antibody, mouse IgG1, V domains shown)
VH: QVQLQQSGAELVKPGASVKLSCKASGYTFISYYMYWVKQRPGQGLEWIGEINPSNGDTNLNEKFKSKATLTVDKSSSTVYMQLSSLTSEDSAVYYCTRWDRFDGFVYWGQGTLVTVSA
VL: ETTVTQSPASLSMAIGGKVTIRCIISTNIDDDINWYQQKPGEPPKLLISEGNTLRPGVPSRFSSSGYGTDFVFTIENMLSEDVADYYCLQSDDLPYTFGGGTKLEIKR
notes: also called anti-TFPI4F110; mAb 4F110
Q: With B3 as the binder, how does the Kd (full length human TFPI) read?
A: Its Kd is 0.002 nM.

Source: patent US20130253173A1 (Novo Nordisk, published 2013)
